As usually defined, the Kd is the constant that tells how readily two partners part at equilibrium.

This data set deals with ICP8 (Infected Cell Polypeptide 8, HSV-1 SSB) (herpes simplex virus-1, UniProt P04296 1-1196). The data set is described as follows: thermal shift assay.
Chain of ICP8 (Infected Cell Polypeptide 8, HSV-1 SSB) (P04296 whole entry): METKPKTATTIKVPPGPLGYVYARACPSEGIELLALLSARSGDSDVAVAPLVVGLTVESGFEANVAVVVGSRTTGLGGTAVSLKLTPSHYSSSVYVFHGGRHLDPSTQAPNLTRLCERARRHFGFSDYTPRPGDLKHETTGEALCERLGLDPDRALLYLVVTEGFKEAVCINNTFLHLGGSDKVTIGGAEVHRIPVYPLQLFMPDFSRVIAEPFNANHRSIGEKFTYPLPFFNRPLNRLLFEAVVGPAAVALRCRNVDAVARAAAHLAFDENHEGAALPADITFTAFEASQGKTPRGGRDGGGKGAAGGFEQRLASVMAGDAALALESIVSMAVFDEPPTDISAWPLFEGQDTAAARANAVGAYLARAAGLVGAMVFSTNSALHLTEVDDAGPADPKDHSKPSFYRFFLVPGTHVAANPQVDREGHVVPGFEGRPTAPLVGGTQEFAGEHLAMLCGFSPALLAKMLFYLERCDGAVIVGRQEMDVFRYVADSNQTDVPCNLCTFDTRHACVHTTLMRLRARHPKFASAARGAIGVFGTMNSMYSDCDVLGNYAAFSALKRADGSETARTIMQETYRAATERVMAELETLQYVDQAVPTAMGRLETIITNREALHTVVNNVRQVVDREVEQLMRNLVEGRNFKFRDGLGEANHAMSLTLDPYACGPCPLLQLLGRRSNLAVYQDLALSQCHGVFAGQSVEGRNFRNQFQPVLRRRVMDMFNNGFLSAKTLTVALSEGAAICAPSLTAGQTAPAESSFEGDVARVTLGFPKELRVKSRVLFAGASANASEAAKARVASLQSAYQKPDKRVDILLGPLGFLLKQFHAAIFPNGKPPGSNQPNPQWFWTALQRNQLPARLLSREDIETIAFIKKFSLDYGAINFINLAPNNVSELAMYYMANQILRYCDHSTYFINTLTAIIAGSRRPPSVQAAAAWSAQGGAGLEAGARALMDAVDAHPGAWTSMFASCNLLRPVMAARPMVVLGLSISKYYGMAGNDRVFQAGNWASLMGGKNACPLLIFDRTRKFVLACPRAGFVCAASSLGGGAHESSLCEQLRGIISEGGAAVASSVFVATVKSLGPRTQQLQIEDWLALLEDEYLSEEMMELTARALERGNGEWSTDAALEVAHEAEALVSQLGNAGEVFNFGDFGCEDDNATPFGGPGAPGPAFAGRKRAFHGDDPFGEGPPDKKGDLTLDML

Take TTTTTTTTTTTTTTTTTTTT (ssDNA) [(dT)20]: the Kd is < 1000 nM.

These data come from PMC4254511.
